Values of other authors, collected in PMC6156988.

Target: EspFu (Escherichia coli) (UniProt P0DJ88)
Sequence of UniProt P0DJ88 (P0DJ88 whole entry): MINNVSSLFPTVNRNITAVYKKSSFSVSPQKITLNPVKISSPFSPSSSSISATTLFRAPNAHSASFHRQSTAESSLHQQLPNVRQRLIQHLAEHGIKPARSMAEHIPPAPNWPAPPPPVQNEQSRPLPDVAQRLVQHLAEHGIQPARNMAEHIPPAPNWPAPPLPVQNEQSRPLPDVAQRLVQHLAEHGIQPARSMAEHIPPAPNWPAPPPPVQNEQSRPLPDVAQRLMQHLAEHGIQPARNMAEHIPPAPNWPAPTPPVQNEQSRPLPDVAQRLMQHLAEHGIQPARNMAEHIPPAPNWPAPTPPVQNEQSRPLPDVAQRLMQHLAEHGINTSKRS

Q: Which Kd does the source give for IRTKS SH3 (from UniProt Q9UHR4) here?
A: Its Kd is 500 nM.
